Patent US20240092889A1 (Chugai, published 2024)
Positions count from the first letter of the chain named.

Legend:
[1] = target: T1, recombinant human C1r2s2 tetramer (human, UniProt P09871 16-688; P00736 18-705); experiment: SPR (BIACORE T200), 37 C, ratio of KD at pH 5.8 to KD at pH 7.4
T1 construct: C1s and C1r co-expressed in HEK293/FreeStyle 293-F and purified from conditioned medium
T1 chain 1: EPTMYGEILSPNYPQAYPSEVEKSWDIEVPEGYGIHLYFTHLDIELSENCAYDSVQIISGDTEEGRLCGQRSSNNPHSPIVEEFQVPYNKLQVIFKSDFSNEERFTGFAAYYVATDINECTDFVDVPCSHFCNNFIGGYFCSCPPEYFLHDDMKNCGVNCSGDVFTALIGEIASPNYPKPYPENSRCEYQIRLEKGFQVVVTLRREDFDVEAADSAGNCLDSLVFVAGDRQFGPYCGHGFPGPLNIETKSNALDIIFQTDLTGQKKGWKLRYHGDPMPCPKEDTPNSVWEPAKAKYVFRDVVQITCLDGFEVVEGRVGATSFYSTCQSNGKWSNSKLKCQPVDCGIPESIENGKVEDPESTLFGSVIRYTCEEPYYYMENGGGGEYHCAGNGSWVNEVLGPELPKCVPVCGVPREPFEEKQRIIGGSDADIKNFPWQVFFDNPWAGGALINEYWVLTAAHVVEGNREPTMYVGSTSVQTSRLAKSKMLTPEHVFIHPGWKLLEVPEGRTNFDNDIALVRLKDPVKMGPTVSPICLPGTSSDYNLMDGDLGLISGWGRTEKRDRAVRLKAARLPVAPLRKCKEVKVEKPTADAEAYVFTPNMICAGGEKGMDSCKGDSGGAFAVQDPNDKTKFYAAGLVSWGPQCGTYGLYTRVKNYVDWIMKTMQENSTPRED
T1 chain 2: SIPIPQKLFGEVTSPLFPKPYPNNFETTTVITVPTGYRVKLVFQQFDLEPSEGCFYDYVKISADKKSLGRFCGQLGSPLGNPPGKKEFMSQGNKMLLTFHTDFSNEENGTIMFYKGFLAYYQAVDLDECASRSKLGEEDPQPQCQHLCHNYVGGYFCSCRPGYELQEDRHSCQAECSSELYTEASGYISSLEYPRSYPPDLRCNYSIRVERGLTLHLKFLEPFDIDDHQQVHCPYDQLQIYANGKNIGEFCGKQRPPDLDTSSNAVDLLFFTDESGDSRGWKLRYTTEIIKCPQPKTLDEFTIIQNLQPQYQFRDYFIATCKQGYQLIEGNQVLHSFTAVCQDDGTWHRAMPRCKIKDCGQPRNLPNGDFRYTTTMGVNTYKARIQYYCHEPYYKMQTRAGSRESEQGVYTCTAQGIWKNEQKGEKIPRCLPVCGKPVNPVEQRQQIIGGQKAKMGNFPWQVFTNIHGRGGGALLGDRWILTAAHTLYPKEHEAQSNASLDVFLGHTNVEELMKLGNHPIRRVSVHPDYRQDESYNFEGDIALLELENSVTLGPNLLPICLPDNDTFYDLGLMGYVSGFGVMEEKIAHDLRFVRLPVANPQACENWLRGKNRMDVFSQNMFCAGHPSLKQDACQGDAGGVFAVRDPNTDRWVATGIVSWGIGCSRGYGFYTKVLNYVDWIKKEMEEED
Description: (§1) KD (dissociation constant) value of each samples at pH 7.4 and pH 5.8 are determined at 37 degrees C. using BIACORE® T200 instrument (GE Healthcare). Purified Mouse Anti-Human Ig kappa Light Chain (GE Healthcare) can be immobilized onto all flow cells of a CMS sensor chip using an amine coupling kit (GE Healthcare). 20 mM ACES, 150 mM NaCl, 1.2 mM CaCl2, 1 mg/mL BSA (IgG-free), 1 mg/mL CMD, 0.05% Tween® 20, 0.005% NaN3, pH 7.4 or pH 5.8 buffer were used as running buffer. Each antibody can be captured onto the sensor surface by Anti-Human Ig kappa Light chain. Antibody capture levels are aimed at 50 resonance unit (RU). […] Sensor surface is regenerated each cycle with, e.g., Glycine pH 2.0 (GE Healthcare). KD values were obtained using BIACORE® T200 Evaluation software, version 2.0 (GE Healthcare).

[2] = target: T1, recombinant human C1r2s2 tetramer; experiment: SPR (BIACORE T200), 37 C, Ab captured via anti-human Ig kappa, human C1r2s2 as analyte, pH 7.4; pH 7.4, 37 C
Description: as §1

[3] = target: T1, recombinant human C1r2s2 tetramer; experiment: SPR (BIACORE T200), 37 C, Ab captured via anti-human Ig kappa, human C1r2s2 as analyte, pH 5.8; pH 5.8 (acidic buffer), 37 C; antibody engineered for pH-dependent binding
Description: as §1

[4] = target: T1, recombinant human C1r2s2 tetramer; experiment: SPR (BIACORE T200), 37 C, Ab captured via anti-human Ig kappa, human C1r2s2 as analyte, pH 7.4; pH 7.4, 37 C; kinetic KD, C1r2s2 up to 100-400 nM
Description: as §1

[5] = target: T1, recombinant human C1r2s2 tetramer; experiment: SPR (BIACORE T200), IPN009VH2Vk3-SG1148 immobilised on the chip, human C1r2s2 injected for capture, pH 7.4, 37 C
Excerpt: Recombinant human C1r2s2 tetramer was first captured onto the sensor surface by the anti-C1r2s2 antibody. The capture levels were aimed at 200 resonance unit (RU). […] The sensor surface was regenerated each cycle with 3 M MgCl2. Sensorgrams were obtained using BIACORE® T200 Evaluation software, version 2.0 (GE Healthcare). […] For comparison of these sensorgrams, binging response of C1r2s2 was normalized as 100 RU. […] For comparison of these sensorgrams, baseline (before injecting antibodies) was adjusted to 0 RU.

B1: COS0637pHv3-TT91R (antibody, V domains shown)
VH: QVQLVESGGGVVQPGRSLRLSCAASGFTFSAYAMNWIRQPPGKGLEWIGLIYGSGHEFYASWAEERVTISVDTSKNQFSLKLSSVTAADTAVYYCARGRSKNYVSGFHLWGQGTLVTVSS
VL: DIQMTQSPSSLSASVGDRVTITCQASQILHDKKNLAWYQQKPGQPPKLLIYQASQLESGVPSRFSGSGSGTDFTLTISSLQPEDFATYYCHGEFSYESADLNQFGQGTKVEIKR
With B1 the “KD (pH 5.8)/KD (pH 7.4)” value [1] was 278, the Kd [2] was 7.66 nM and the Kd [3] was 2130 nM.

B2: COS0637pHv5-TT91R (antibody, V domains shown)
VH: B1 VH with T28S
VL: B1 VL with Q27G, Q52G, S98E, Q103T
B2 was tested, and the Kd [4] was 6.43 nM.

B3: IPN009VH2VK3-SG1148 (antibody, human IgG1, kappa, V domains shown)
VH: EVMLVESGGGLVKPGGSLRLSCAASGFTFSNYAMSWVRQAPGKGLEWVATISSGGSHTYYLDSVKGRFTISRDNSKDTLYLQMNSLRAEDTALYYCARLFTGYAMDYWGQGTLVTVSS
VL: QIVLTQSPATLSLSPGERATLSCTASSSVSSSYLHWYQQKPGKAPKLWIYSTSNLASGVPSRFSGSGSGTDYTLTISSLQPEDFATYYCHQYYRLPPITFGQGTKLEIKR
notes: also called anti-human C1r2s2 antibody
B3: binds [5].
